For three sequences, IC50 and Kd results are on record in the Immune Epitope Database (IEDB).

The target of assay [1] is HLA-A*31:01. In words: IEDB peptide-MHC binding, purified MHC/competitive/fluorescence; ≥ and ≤ were set here for values at or beyond the usual limits of such assays. The conditions noted are these: source organism: Homo sapiens.
Another assay has as its target HLA-A*02:01. In words: IEDB peptide-MHC binding, purified MHC/direct/fluorescence; filed as Kd, often an IC50 or EC50 that approximates it; ≥ and ≤ were set here for values at or beyond the usual limits of such assays.
In the next assay the target is HLA-A*68:02. The description is as above. The conditions noted are these: source organism: Bacillus anthracis str. A0488.
The next assay has as its target HLA-A*02:12. Described as above.
Another assay addresses HLA-B*39:01. Described as above. The conditions noted are these: source organism: Bacillus anthracis str. A0488.
The target of the next assay is HLA-A*03:01. The description is as above.
The target of a further assay is HLA-A*23:01. The assay is described as above. The conditions noted are these: source organism: Bacillus anthracis str. A0488.
Another assay has as its target HLA-B*57:01. The description is as above. As to conditions: source organism: Bacillus anthracis str. A0488.
The target in a further assay is HLA-A*02:16. The description is as above. The conditions noted are these: source organism: Bacillus anthracis str. A0488.
A further assay has as its target HLA-B*46:01. The assay is described as above.
For another assay, the target named is HLA-B*15:01. Described as above.
In another assay the target is HLA-A*26:01. The description is as above. The conditions noted are these: source organism: Bacillus anthracis str. A0488.
A further assay addresses HLA-A*02:03. The assay is described as above.
A further assay concerns the target HLA-A*02:11. The assay is described as above.
The next assay addresses HLA-B*27:03. Described as above. The conditions noted are these: source organism: Bacillus anthracis str. A0488.
The next assay has as its target HLA-B*15:17. Described as above. The conditions noted are these: source organism: Bacillus anthracis str. A0488.
The next assay concerns the target HLA-A*02:19. Described as above.
The target of a further assay is HLA-B*18:01. The assay is described as above.
Assay [2] has as its target HLA-A*11:01. In words: IEDB peptide-MHC binding, purified MHC/competitive/fluorescence; filed as Kd, often an IC50 or EC50 that approximates it; ≥ and ≤ were set here for values at or beyond the usual limits of such assays. As to conditions: source organism: Bacillus anthracis str. A0488.
Assay [3] has as its target HLA-B*27:05. The assay is described as above. As to conditions: source organism: Bacillus anthracis str. A0488.
The target in assay [4] is HLA-B*44:02. The description is as above. The conditions noted are these: source organism: Bacillus anthracis str. A0488.
The target in the next assay is HLA-B*51:01. Described as above. The conditions noted are these: source organism: Bacillus anthracis str. A0488.
For the next assay, the target named is HLA-B*53:01. The assay is described as above. The conditions noted are these: source organism: Bacillus anthracis str. A0488.
The target in assay [5] is HLA-B*58:01. The assay is described as above. The conditions noted are these: source organism: Bacillus anthracis str. A0488.
For a further assay, the target named is HLA-A*66:01. Described as above. As to conditions: source organism: Bacillus anthracis str. A0488.
A further assay deals with HLA-A*30:01. Described as above. The conditions noted are these: source organism: Bacillus anthracis str. A0488.
Assay [6] deals with HLA-B*08:01. The assay is described as above. The conditions noted are these: source organism: Bacillus anthracis str. A0488.
The target in a further assay is HLA-A*30:02. The description is as above. As to conditions: source organism: Bacillus anthracis str. A0488.
Assay [7] concerns the target HLA-B*40:01. The assay is described as above. As to conditions: source organism: Bacillus anthracis str. A0488.
In assay [8] the target is HLA-B*07:02. The description is as above. As to conditions: source organism: Bacillus anthracis str. A0488.
Assay [9] has as its target HLA-A*01:01. Described as above. As to conditions: source organism: Bacillus anthracis str. A0488.
Another assay concerns the target HLA-B*14:02. The description is as above. As to conditions: source organism: Bacillus anthracis str. A0488.
Assay [10] deals with HLA-A*11:01. In words: IEDB peptide-MHC binding, purified MHC/direct/fluorescence; filed as Kd, often an IC50 or EC50 that approximates it; ≥ and ≤ were set here for values at or beyond the usual limits of such assays. As to conditions: source organism: Clostridium botulinum.
The target in a further assay is HLA-A*02:06. The assay is described as above. The conditions noted are these: source organism: Clostridium botulinum NCTC 2916.
Assay [11] deals with HLA-B*27:05. The assay is described as above. The conditions noted are these: source organism: Clostridium botulinum.
The target in assay [12] is HLA-B*44:02. Described as above. The conditions noted are these: source organism: Clostridium botulinum.
In assay [13] the target is HLA-B*58:01. The description is as above. The conditions noted are these: source organism: Clostridium botulinum.
Another assay deals with HLA-B*08:02. The description is as above. The conditions noted are these: source organism: Clostridium botulinum NCTC 2916.
The next assay addresses HLA-A*24:02. The description is as above. The conditions noted are these: source organism: Clostridium botulinum.
Another assay addresses HLA-B*15:09. Described as above. As to conditions: source organism: Clostridium botulinum NCTC 2916.
In a further assay the target is HLA-A*69:01. The description is as above. As to conditions: source organism: Clostridium botulinum.
For assay [14], the target named is HLA-B*08:01. The description is as above. As to conditions: source organism: Clostridium botulinum NCTC 2916.
For assay [15], the target named is HLA-A*31:01. Described as above. As to conditions: source organism: Clostridium botulinum.
Assay [16] deals with HLA-B*40:01. The description is as above. As to conditions: source organism: Clostridium botulinum.
In assay [17] the target is HLA-B*07:02. Described as above. The conditions noted are these: source organism: Clostridium botulinum.
For assay [18], the target named is HLA-A*01:01. Described as above. As to conditions: source organism: Clostridium botulinum.
The mark [19] stands for this setting: source organism: Bacillus anthracis str. A0488.
Setting [20] is: source organism: Clostridium botulinum.
Setting [21] is: source organism: Clostridium botulinum NCTC 2916.

VTMGTGTFGR came in with a half-inhibitory concentration (IC50) in the assay with HLA-A*31:01 [1] of 0.357 µM. That is a sub-micromolar value.

In the case of WDAYIPHYV, the Kd with HLA-A*02:01 (setting [19]) was not below 20 µM; in the assay with HLA-A*68:02, not above 0.001 µM; with HLA-A*02:12 (setting [19]), not below 20 µM; with HLA-B*39:01, not below 20 µM; with HLA-A*03:01 (setting [19]), not below 20 µM; with HLA-A*23:01 it was not below 20 µM. For the same sequence, the Kd in the assay with HLA-B*57:01, with HLA-A*02:16, in the assay with HLA-B*46:01 (setting [19]), with HLA-B*15:01 (setting [19]), with HLA-A*26:01 and with HLA-A*02:03 (setting [19]) was not below 20 µM throughout. For the same sequence, the Kd in the assay with HLA-A*02:11 (setting [19]) is not below 20 µM; with HLA-B*27:03, not below 20 µM; with HLA-B*15:17, not below 20 µM; with HLA-A*02:19 (setting [19]) it was not below 20 µM; with HLA-B*18:01 (setting [19]), not below 20 µM; with HLA-A*11:01 [2], not below 5 µM. For the same sequence, the dissociation constant (Kd) with HLA-B*27:05 [3] is not below 5 µM; in the assay with HLA-B*44:02 [4], not below 5 µM; in the assay with HLA-B*51:01, 0.535 µM; with HLA-B*53:01 it was not below 5 µM; with HLA-B*58:01 [5] it was not below 5 µM; in the assay with HLA-A*66:01 it was not below 5 µM. Further, the dissociation constant (Kd) in the assay with HLA-A*30:01, with HLA-B*08:01 [6], in the assay with HLA-A*30:02, with HLA-B*40:01 [7], with HLA-B*07:02 [8] and with HLA-A*01:01 [9] was not below 5 µM in each case. This sequence registered a Kd in the assay with HLA-B*14:02 not below 5 µM.

RVYINVVVK: the Kd in the assay with HLA-A*11:01 [10] is 0.484 µM; with HLA-A*02:06 it was 0.263 µM; with HLA-B*27:05 [11], not below 20 µM; in the assay with HLA-A*02:01 (setting [20]) it was 0.982 µM; with HLA-A*02:12 (setting [21]), 0.697 µM; with HLA-A*03:01 (setting [20]), 0.241 µM. For the same sequence, the Kd with HLA-B*44:02 [12], in the assay with HLA-B*58:01 [13], in the assay with HLA-B*08:02, in the assay with HLA-A*24:02, with HLA-B*46:01 (setting [20]) and with HLA-B*15:09 was not below 20 µM throughout. Further, the Kd is not below 20 µM with HLA-B*15:01 (setting [20]); not below 20 µM with HLA-A*69:01; 0.599 µM with HLA-A*02:03 (setting [21]); not below 20 µM with HLA-B*08:01 [14]; 0.603 µM with HLA-A*02:11 (setting [21]); 0.231 µM in the assay with HLA-A*31:01 [15]. Further, the Kd with HLA-B*40:01 [16] was not below 20 µM; with HLA-B*07:02 [17], not below 20 µM; in the assay with HLA-A*01:01 [18], not below 20 µM; in the assay with HLA-A*02:19 (setting [21]) it was 2.15 µM; with HLA-B*18:01 (setting [20]), not below 20 µM.

In general, IC50 refers to the concentration that gives 50% inhibition. Read a high IC50 as weaker potency. In general, Kd refers to the constant that tells how readily two partners part at equilibrium. Read a low Kd as higher affinity.
